This note sets out measurements from patent US20180222975A1 (ELEVEN BIOTHERAPEUTICS, published 2018).

Changes are numbered by the printed parent chain.

Assay [1] concerns the target T1, human IL-6 (human, UniProt P05231 30-212).
T1 construct: also called IL-6 (R&D Systems, cat# 206-IL/CF); biotinylated human IL-6
The assay is described as follows: ELISA, hybridoma supernatant on plates coated with human IL-6. The procedure: Hybridoma supernatants were screened for IL-6 binding and antagonism. For the binding ELISA, Costar 9018 plates were coated with 1 μg/mL human IL-6 in PBS overnight at 4° C. Wells were blocked with PBS containing 2% BSA, washed, and then incubated with 50 μL of each hybridoma supernatant diluted 1:2 with PBS containing 2% BSA. After 60 minutes, wells were washed three times with 300 μl PBS containing 0.1% Tween-20. Anti-mouse-HRP diluted 1:3000 in PBS-BSA was then added to each well and incubated for 30 minutes. Wells were washed as above then 3,3′,5,5′-tetramethylbenzidine (TMB) substrate was added and the signal measured at 450 and 550 nm. For antagonism studies, HEK-Blue™-IL6 reporter cells (InvivoGen. San Diego, Calif.) were incubated with increasing concentrations of human IL-6 in the presence of 1:10 diluted hybridoma supernatant. After 20-24 hours, 20 μl of supernatant was mixed with 180 μl QuantiBlue™ (InvivoGen) and the absorbance measured at 655 nm.

Assay [2] has as its target T1, human IL-6. The assay is described as follows: ELISA, blocking of IL-6/IL-6Rα complex binding to gp130. (In general: In an ELISA, binding on a coated surface is turned into a signal by an enzyme label.)
In assay [3] the target is African green monkey IL-6 (African green monkey). The assay is described as follows: monovalent affinity.
Assay [4] addresses T2, dog IL-6 (dog, UniProt P41323 21-207, limits assumed).
T2 construct: also called canine IL-6
T2 sequence (looked up): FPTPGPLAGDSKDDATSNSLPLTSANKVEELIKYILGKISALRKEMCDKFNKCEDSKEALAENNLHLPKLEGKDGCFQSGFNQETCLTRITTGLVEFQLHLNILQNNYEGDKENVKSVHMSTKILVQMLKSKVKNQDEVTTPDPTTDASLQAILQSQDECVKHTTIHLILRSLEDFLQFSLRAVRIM
Kind of assay: monovalent affinity.

Assay [5] deals with T3, mouse IL-6 (mouse, UniProt P08505 25-211).
T3 construct: also called rodent IL-6
T3 sequence (looked up): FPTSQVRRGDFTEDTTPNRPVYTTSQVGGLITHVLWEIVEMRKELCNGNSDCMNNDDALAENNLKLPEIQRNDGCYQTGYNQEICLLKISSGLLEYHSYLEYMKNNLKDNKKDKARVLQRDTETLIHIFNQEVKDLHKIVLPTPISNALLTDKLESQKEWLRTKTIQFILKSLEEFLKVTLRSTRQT
The assay is described as follows: monovalent affinity.

In assay [6] the target is T4, rabbit IL-6 (rabbit, UniProt Q9MZR1 27-241, limits assumed).
T4 sequence (looked up): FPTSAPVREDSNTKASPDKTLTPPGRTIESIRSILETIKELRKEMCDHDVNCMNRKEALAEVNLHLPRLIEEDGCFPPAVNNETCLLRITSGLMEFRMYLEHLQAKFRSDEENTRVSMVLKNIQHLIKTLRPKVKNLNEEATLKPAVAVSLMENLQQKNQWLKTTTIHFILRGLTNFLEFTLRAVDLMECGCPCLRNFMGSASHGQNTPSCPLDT
Kind of assay: monovalent affinity.

Assay [7] addresses T5, rat IL-6 (rat, UniProt P20607 25-211).
T5 construct: also called rodent IL-6
T5 sequence (looked up): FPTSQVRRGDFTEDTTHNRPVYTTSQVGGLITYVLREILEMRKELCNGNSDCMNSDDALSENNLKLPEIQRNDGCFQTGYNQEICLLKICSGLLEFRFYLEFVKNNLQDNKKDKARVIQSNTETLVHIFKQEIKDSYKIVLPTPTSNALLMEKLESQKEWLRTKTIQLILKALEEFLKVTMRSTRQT
The assay is described as follows: monovalent affinity.

Assay [8] addresses T1, human IL-6. Kind of assay: affinity tested using the yeast system; original humanized h64, before affinity maturation; yeast system.

B1: murine 64 antibody (antibody, V domains shown)
VH: QVQLQQSGAELVRPGTSVKVSCKASGYAFSNYLIEWVKQRPGQGLEWIGVITPGSGTINYNEKFKGKAVLTADKSSSTVYMQLSSLTSDDSAVYFCAKSRWDPLYYYALEYWGQGTSVTVSS
VL: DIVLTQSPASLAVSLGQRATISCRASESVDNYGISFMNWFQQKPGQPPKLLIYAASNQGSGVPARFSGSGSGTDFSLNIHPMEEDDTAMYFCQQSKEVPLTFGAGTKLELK
notes: Murine monoclonal; also called hybridoma 64; m64
Regarding B1, in assay [1], the binding result was “binds”.

B2: chimeric murine 64 antibody (antibody, V domains shown)
VH: B1 VH
VL: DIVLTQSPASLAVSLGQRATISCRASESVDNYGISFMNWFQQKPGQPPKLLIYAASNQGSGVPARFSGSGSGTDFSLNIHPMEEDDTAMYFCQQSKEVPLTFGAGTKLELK
notes: constant regions not described
Consider B2, for which the binding result in assay [2] is reported as “binds”.

B3: 018 Fab (Fab, V domains shown)
VH: QVQLVQSGAEVKKPGSSVKVSCKASGYALSNYLIEWVRQAPGQGLEWMGVITPGSGTINYAQKFQGRVTITADESTSTAYMELSSLRSEDTAVYYCARSRWDPLYYYALEYWGQGTTVTVSS
VL: DIVMTQSPDSLAVSLGERATINCRASESVDNYGIPFMNWYQQKPGQPPKLLIYAASNRGSGVPDRFSGSGSGTDFTLTISSLQAEDVAVYYCQQSEEVPLTFGQGTKLEIKR
notes: Fab with CK and IgG1 CH1 domains; also called Fab fragment of the h64-1,4 humanized antibody
For the molecule B3, the dissociation constant Kd in assay [3] is 0.28 nM; in assay [4], more than 1000 nM; in assay [5] it was more than 1000 nM; in assay [6] it was more than 1000 nM; in assay [7] it was more than 1000 nM.

B4: h64 IgG (antibody, V domains shown)
VH: B3 VH with L29F
VL: DIVMTQSPDSLAVSLGERATINCRASESVDNYGISFMNWYQQKPGQPPKLLIYAASNQGSGVPDRFSGSGSGTDFTLTISSLQAEDVAVYYCQQSKEVPLTFGQGTKLEIK
notes: also called original h64 antibody; original humanized molecule
The molecule B4 returned a Kd in assay [8] of 0.343 nM.

One may read the Kd as the constant that tells how readily two partners part at equilibrium.
